Measured values from IntAct's records for PubMed 28360110.

B1: Solute carrier family 26 member 9 (Homo sapiens), Q7LBE3-1 (parent)
chain: MSQPRPRYVVDRAAYSLTLFDDEFEKKDRTYPVGEKLRNAFRCSSAKIKAVVFGLLPVLSWLPKYKIKDYIIPDLLGGLSGGSIQVPQGMAFALLANLPAVNGLYSSFFPLLTYFFLGGVHQMVPGTFAVISILVGNICLQLAPESKFQVFNNATNESYVDTAAMEAERLHVSATLACLTAIIQMGLGFMQFGFVAIYLSESFIRGFMTAAGLQILISVLKYIFGLTIPSYTGPGSIVFTFIDICKNLPHTNIASLIFALISGAFLVLVKELNARYMHKIRFPIPTEMIVVVVATAISGGCKMPKKYHMQIVGEIQRGFPTPVSPVVSQWKDMIGTAFSLAIVSYVINLAMGRTLANKHGYDVDSNQEMIALGCSNFFGSFFKIHVICCALSVTLAVDGAGGKSQVASLCVSLVVMITMLVLGIYLYPLPKSVLGALIAVNLKNSLKQLTDPYYLWRKSKLDCCIWVVSFLSSFFLSLPYGVAVGVAFSVLVVVFQTQFRNGYALAQVMDTDIYVNPKTYNRAQDIQGIKIITYCSPLYFANSEIFRQKVIAKTGMDPQKVLLAKQKYLKKQEKRRMRPTQQRRSLFMKTKTVSLQELQQDFENAPPTDPNNNQTPANGTSVSYITFSPDSSSPAQSEPPASAEAPGEPSDMLASVPPFVTFHTLILDMSGVSFVDLMGIKALAKLSSTYGKIGVKVFLVNIHAQVYNDISHGGVFEDGSLECKHVFPSIHDAVLFAQANARDVTPGHNFQGAPGDAELSLYDSEEDIRSYWDLEQEMFGSMFHAETLTAL

Variants of: B1
Conditions: with gopc_human GOPC

| Variant | effect of a mutation on the interaction |
| --- | --- |
| T789A | decreasing interaction strength |
